Assay results reported in PMC9405973, “Altered Conformational Landscape upon Sensing Guanine Nucleotides in a Disease Mutant of Elongation Factor-like 1 (EFL1) GTPase” (Biomolecules, 2022).

Key:
[1] = target: Sdo1 (Saccharomyces cerevisiae) (UniProt Q07953); assay: ITC; details: cited from earlier work
[2] = Enzyme kinetics of GTP hydrolysis (PNP coupled assay, Michaelis–Menten); assay type: biochemical, Saccharomyces cerevisiae; details: isolated enzyme
Procedure: (§1) Finally, we measured the enzyme kinetics of mutant Efl1 R1086Q as an isolated enzyme and bound to Sdo1 using an enzymatic coupled assay with a purine nucleoside phosphorylase (PNP) enzyme. This analysis was extended to another disease mutation (EFL1 M882K) also located in domain IV of the GTPase using the equivalent yeast variant, Efl1 L910K [17]. The Km and kcat kinetic parameters were calculated using non-linear regression assuming a Michaelis–Menten model (Supplementary Table S1). […] The catalytic constant for mutant R1086Q and the wild-type enzyme consisted of 0.67 min^−1, and it was 0.58 min^−1 for mutant Efl1 L910K. […] In line with the proposed role of Sdo1 as a guanine exchange factor of Efl1, previous results have shown that the interaction of wild-type Efl1 with Sdo1 impacted its Km for GTP, decreasing its value 2–3-fold. The Km values for the complexes formed between Sdo1 and Efl1 mutants decreased by half with respect to their cognate-free counterpart and differed from each other. […] The measured Km value comprises all the microscopic rate constants of the individual reactions occurring in the enzyme, which include the binding to the substrate and product and the corresponding conformational changes.
Hydrolysis of GTP was measured using the Enzchek Phosphate Assay kit (Molecular Probes) as described by Webb. Standard reactions consisted of 100 µL containing 6 µM of Efl1 R1086Q and Efl1 L910K, 0.3 mM MESG, 1.0 U purine nucleoside phosphorylase (PNP) and the indicated amounts of GTP. Measurements done in the presence of effector protein contained 25 µM of Sdo1.
The reaction buffer consisted of 50 mM HEPES -KOH pH 7.5, 150 mM NaCl, 5 mM MgCl2.
(§2) Reactions were initiated and the GTPase was added after 3 min. Time courses were followed by recording the change in absorbance at 360 nm in a Cary 60 UV -Vis spectrophotometer (Agilent Technologies). Background absorbance was recorded prior to the addition of the GTPase and subtracted from the sample signals. The slope of the measured time courses corresponded to the GTP hydrolysis rate. The concentration of releas ed phosphate was estimated using a molar absorption coefficient at 360 nm of 14,386 M -1 cm-1 previously described in [2]. Data were analysed by nonlinear regression to the M ichaelis-Menten equation with the program Origin Version 5.0 (OriginLab, Co., Northampton, MA). […]
M HEPES-KOH pH 7.4, 2.5 mM magnesium acetate, 50 mM sucrose, 2 mM DTT, 0.1 mM PMSF, 0.1 mM benzamidine, 8 mM putrescine, 1 mM spermidine. […]
Dilution at the end of each titration was no longer than 2.5% of the initial volume. Data were corrected for the background signal by subtracting the fluorescence of the same ligand concentration without the GTPase in the reaction mixture.
(§3) Maximum emission at 440 nm was replotted as a function of nucleotide concentration and analysed

[3] = system: Tif6 bound to 60S subunits; assay: Tif6 release assay with purified yeast components; assay type: biochemical, Saccharomyces cerevisiae; details: 50 nM Efl1 variant, 50 nM Sdo1, 100 µM GTP, 30 °C, 10 min
Procedure: The release of Tif6 (yeast orthologue of eIF6) was performed as previously described in [3, 15]. Reaction mixtures contained 10 nM 60S subunits, 40 nM Tif6, 50 nM Efl1 variant, 50 nM Sdo1, and 100 µM GTP in buffer of 10 mM Tris-HCl at pH 7.4, 75 mM KCl, and 1.5 mM MgCl2 supplemented with RNAse inhibitors (Promega, Madison, WI, USA) and protease inhibitors free of EDTA (GoldBio, St. Louis, MO, USA). GTP was omitted in the negative control, and 50 mM EDTA was added as the positive control to disassemble the 60S ribosomal subunits. Reaction mixtures of 100 µL were incubated at 30 °C for 10 min and added on top of 150 µL of a 30% sucrose cushion prepared in the same buffer. Samples were centrifuged at 476,000× g for 30 min in an Optima tabletop MX ultracentrifuge with a TLA-100 rotor. The top 200 µL (free fraction) was recovered, and the remaining 50 µL was resuspended in 150 µL of the same buffer. Samples were precipitated with 30% trichloroacetic acid, electrophoresed in 10% Tris-glycine SDS-PAGE, transferred to a PVDF membrane, and immunoblotted with antibodies anti-eIF6 (PA531066; Thermo Scientific; dilution 1:3000) and anti-uL3 (OAAB09713; Aviva Systems Biology, San Diego, CA, USA; dilution 1:500) overnight at 4 °C. […] Signals were quantified using programme Image J version 1.8.0. […]

[4] = substrate: Nc1nc2c(ncn2[C@@H]2O[C@H](COP(=O)(O)OP(=O)(O)OP(=O)(O)O)[C@@H](O)[C@H]2O)c(=O)[nH]1; assay: GTP hydrolysis by PNP-coupled Enzchek phosphate assay (MESG, 360 nm), pH 7.5, 5 mM MgCl2, 6 µM Efl1 alone, Michaelis-Menten fit.; assay type: biochemical; details: 25.0 °C
Procedure: as §1
Hydrolysis of GTP was measured using the Enzchek Phosphate Assay kit (Molecular Probes) as described by Webb. […]
as §2, with “The concentration of releas ed phosphate was estimated using a molar absorption coefficient at 360 nm of 14,386 M -1 cm-1 previously described in [2].” left out
as §3

Chain of Sdo1 (Saccharomyces cerevisiae) (Q07953 whole entry): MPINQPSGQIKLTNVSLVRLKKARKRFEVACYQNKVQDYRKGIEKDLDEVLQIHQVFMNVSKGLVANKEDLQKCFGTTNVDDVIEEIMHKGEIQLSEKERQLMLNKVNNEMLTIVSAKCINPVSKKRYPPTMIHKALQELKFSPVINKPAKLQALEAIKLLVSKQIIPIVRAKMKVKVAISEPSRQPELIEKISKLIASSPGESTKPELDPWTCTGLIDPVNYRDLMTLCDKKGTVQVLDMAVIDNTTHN

## Efl1 (from UniProt P53893)
[1]
  Kd: 300 nM

B1: Efl1 R1086Q (Saccharomyces cerevisiae S288C; R1086Q) (protein)
chain: MPRVESETYKRLQNDPSCIRNICIVAHVDHGKTSLSDSLLASNGIISQRLAGKIRFLDARPDEQLRGITMESSAISLYFRVLRKQEGSDEPLVSEHLVNLIDSPGHIDFSSEVSAASRLCDGAVVLVDVVEGVCSQTVTVLRQCWTEKLKPILVLNKIDRLITELQLTPQEAYIHLSKVIEQVNSVIGSFFANERQLDDLFWREQLEKNENAEYIEKDDSGIYFNPTDNNVIFASAIDGWGFNIGQLAKFYEQKLGAKRENLQKVLWGDFYMDPKTKKIINNKGLKGRSLKPLFTSLILENIWKIYQNIITSRDSEMVEKIAKTLNIKLLARDLRSKDDKQLLRTIMGQWLPVSTAVLLTVIEKLPSPLESQTDRLNTILVSESDTAAMDPRLLKAMKTCDKEGPVSAYVSKMLSIPREELPVESKRIASSDELMERSRKAREEALNAAKHAGMVENMAMMDLNDNSKNTSDLYKRAKDTVMTPEVGEQTKPKPSRNNDVFCVVSEPSSALDLEFEYEGEDDSDSQDNFGLDFVPTDIDPNDPLSSMFEYEEEDPLLESIKQISEDVNDEVDDIFDEKEECLVAFARIYSGTLRVGQEISVLGPKYDPKCPEEHIETAIITHLYLFMGKELVPLDVCPSGNIVGIRGLAGKVLKSGTLIEKGVQGVNLAGVNFHFTPIVRVAVEPANPVEMSKLVRGLKLLDQADPCVHTYVENTGEHILCTAGELHLERCLKDLTERFAGIEITHSEPAIPYRETFLSASDMNPPQNSQLGRGVHELLLSQYKITFRTFPLSGKVTDFLSQHQNSIKNILKTSTSSMDPVIESTGSSFLDKKSLLVAFEEVINQEEKSRELLSGFKVKLAGFGPSRVGCNILLSQDNLLGSLFEGTPAAFEYSDSIKNGFQLAVSEGPLANEPVQGMCVLVESVHKMSQDEIESIEDPRYQQHIVDLSGRLITSTRDAIHEAFLDWSPRIMWAIYSCDIQTSVDVLGKVYAVILQRHGKIISEEMKEGTPFFQIEAHVPVVEAFGLSEDIRKRTSGAAQPQLVFSGFECIDLDPFWVPTTEEELEELGDTADRENIARKHMNAIQRRKGLFIEEKVVENAEKQRTLKKN
notes: recombinantly expressed in S. cerevisiae; isolated GTPase
[2]
  kcat: 0.0112 s⁻¹
[3]
  release of Tif6 from the 60S subunit (distribution of Tif6 in free and bound fraction, immunoblot): reduced portion of Tif6 in the free fraction compared with that for the wild type
[4]
  Km: 146 µM
